The values that follow come from the RNAGym collection of RNA variant scans (doi:10.7554/elife.80360).

B1: Twister Ribozyme (parent)
chain: AACACUGCCAAUGCCGGUCCCAAGCCCGGAUAAAAGUGGAGGGGGCGG

The data set covers variants of B1. The data set can be described thus: self-cleavage, relative activity (ratio to wild type); higher = more cleavage; co-transcriptional.
With U12C U31A, the self-cleavage turned out to be 0.78.

G7C U31G: the self-cleavage is 0.0544.

As for C5A A22G, the self-cleavage came out at 0.0856.

Consider C9A G42U, for which the self-cleavage amounted to 0.149.

As to G17A, the self-cleavage came to 0.783.

As for U12C G16C, the self-cleavage worked out at 0.482.

With G16U A40C, the self-cleavage turned out to be 0.156.

G13C G41C: the self-cleavage is 0.104.

Consider G13C G41A, for which the self-cleavage stood at 0.0914.

Consider C3G C5U, for which the self-cleavage was 0.309.

G16U C19G: the self-cleavage worked out at 0.342.

As for C14U A35C, the self-cleavage was found to be 1.05.

Take G17C A32C: the self-cleavage was 0.0792.

For A23C A40C, the self-cleavage turned out to be 0.0967.

On to A11U G24U, for which the self-cleavage amounted to 0.105.

For the variant G16U U31A, the self-cleavage came to 1.05.

In the case of G13A A40G, the self-cleavage is 0.185.

Take C15G G16A: the self-cleavage came to 0.498.

Turning to C20U C27A, the self-cleavage came to 0.171.

For C9G A23C, the self-cleavage was 0.0567.

As for G44U G48A, the self-cleavage came out at 0.717.

Turning to A1C C26U, the self-cleavage turned out to be 0.133.

As for G29C G42U, the self-cleavage came to 0.129.

With A1C G41U, the self-cleavage stood at 0.199.

For the variant G7U C14A, the self-cleavage stood at 0.133.

Regarding C15U C21A, the self-cleavage amounted to 0.138.

With C14A G17C, the self-cleavage was determined as 0.12.

As to U12G C26G, the self-cleavage is 0.451.

Regarding A2C U12A, the self-cleavage was found to be 0.0702.

As for A1U C15A, the self-cleavage was 0.0603.

Consider A22G C27G, for which the self-cleavage is 0.084.

Consider G7A C26A, for which the self-cleavage stood at 0.0788.

With A10U C14A, the self-cleavage came out at 0.824.

As for C27U U31A, the self-cleavage amounted to 0.792.

Turning to C25U G36C, the self-cleavage was found to be 0.15.

Take C15A G42A: the self-cleavage was 0.156.

For A10U G39U, the self-cleavage is 0.215.

Take G13C: the self-cleavage came to 0.584.

As for C19G A32G, the self-cleavage is 0.267.

Take A10U A11C: the self-cleavage is 1.03.

As for G24U G48C, the self-cleavage worked out at 0.127.

With C8A G17C, the self-cleavage stood at 0.0615.

On to C15G G17U, for which the self-cleavage is 0.319.

G7U U18A: the self-cleavage stood at 0.0251.

On to G29U G41C, for which the self-cleavage was found to be 0.25.

As for C21G U37A, the self-cleavage turned out to be 0.101.

Take C21G U37C: the self-cleavage is 0.0765.

On to G39U G45C, for which the self-cleavage was 0.183.

On to A4G G47U, for which the self-cleavage was 0.902.

For the variant C14A G24C, the self-cleavage was determined as 0.0765.

Turning to A22C A32U, the self-cleavage was determined as 0.858.

For G17U A34U, the self-cleavage is 0.159.

With A35G G45U, the self-cleavage turned out to be 0.659.

With C27A G47U, the self-cleavage is 0.186.

For the variant U6A A34G, the self-cleavage was 0.731.

On to U6C G42A, for which the self-cleavage amounted to 0.0608.

Take G7C G24U: the self-cleavage was 0.0628.

For U18C A23G, the self-cleavage was 0.157.

On to A32C A33G, for which the self-cleavage is 0.945.

C27G G47C: the self-cleavage was 0.0485.

With G7C G29U, the self-cleavage worked out at 0.0704.

In the case of C19U G29A, the self-cleavage turned out to be 0.806.

Regarding U12C G41C, the self-cleavage came to 0.264.

In the case of C25U C26A, the self-cleavage is 0.0893.

For the variant C9U C27G, the self-cleavage was 0.0911.

Regarding A23G U31A, the self-cleavage is 0.602.

A4G A40U: the self-cleavage worked out at 0.163.

For the variant G39U G48U, the self-cleavage turned out to be 0.196.

With U18A C27A, the self-cleavage was 0.114.

For the variant U12A C20G, the self-cleavage was 0.16.

Consider U12A C20A, for which the self-cleavage was found to be 0.181.

On to C19G U31C, for which the self-cleavage stood at 0.492.

Consider C20A U37G, for which the self-cleavage was 0.109.

Regarding A1C C3U, the self-cleavage was 0.208.

As to C19U G44U, the self-cleavage was 0.86.

In the case of G28U G39U, the self-cleavage came to 0.177.

For the variant C15A G44U, the self-cleavage was determined as 0.661.

For the variant C21A G36C, the self-cleavage stood at 0.109.

Regarding A10C G29C, the self-cleavage turned out to be 0.845.

For the variant U18C C27G, the self-cleavage turned out to be 0.0754.

Consider C9U C26A, for which the self-cleavage worked out at 0.0658.

Turning to A2C A35G, the self-cleavage was found to be 0.0429.

For U12G G43U, the self-cleavage amounted to 0.454.

As for U18A G48U, the self-cleavage was 0.419.

Turning to G16A A30C, the self-cleavage was found to be 0.91.

In the case of A2U C19A, the self-cleavage came out at 0.129.

Take A2U G42A: the self-cleavage was 0.164.

For U6C G38C, the self-cleavage turned out to be 0.249.

With U18A A34U, the self-cleavage was 0.0942.

With U12G G28C, the self-cleavage was 0.344.

As to A32G C46G, the self-cleavage is 0.854.

As to U12A C15G, the self-cleavage worked out at 0.17.

A11G U31G: the self-cleavage was 1.1.

In the case of A22U G44A, the self-cleavage is 0.788.

Turning to G7A C27G, the self-cleavage worked out at 0.0632.

Regarding A11C G28A, the self-cleavage came to 0.656.

In the case of A2G A23U, the self-cleavage is 0.0843.

On to G16U A23G, for which the self-cleavage amounted to 0.0652.

For U31C G42U, the self-cleavage was 0.407.

With A2G, the self-cleavage is 0.411.

On to G38U G48U, for which the self-cleavage turned out to be 1.05.

Turning to A11C C15G, the self-cleavage amounted to 0.0591.

For the variant G7C G48U, the self-cleavage turned out to be 0.0851.

On to A4U A22C, for which the self-cleavage came to 0.0902.

In the case of C19A G24A, the self-cleavage came to 0.0849.

For A10C A34G, the self-cleavage was 0.88.

For the variant U18A G44C, the self-cleavage stood at 0.448.

Consider C15A G43U, for which the self-cleavage is 0.258.

On to G36A G48U, for which the self-cleavage was determined as 0.809.

Take C19U G47C: the self-cleavage stood at 0.235.

In the case of C3A A35C, the self-cleavage worked out at 0.315.

Turning to C15G A40U, the self-cleavage came to 0.0313.

Regarding G24A A30G, the self-cleavage stood at 0.125.

On to A1U G16U, for which the self-cleavage came to 0.0446.

Turning to C26A A30C, the self-cleavage worked out at 0.0881.

With C8U G29A, the self-cleavage was 0.516.

Regarding U18G G47A, the self-cleavage is 0.0493.

With C27A A35G, the self-cleavage stood at 0.0986.

Consider C5G U37C, for which the self-cleavage stood at 0.14.

With C5U C25U, the self-cleavage came out at 0.507.

G29C A30C: the self-cleavage is 0.971.

As to A1U C14G, the self-cleavage amounted to 0.0363.

With G28A G29A, the self-cleavage amounted to 0.898.

As to A30U G38A, the self-cleavage was 0.987.

Regarding A33U G39U, the self-cleavage turned out to be 0.162.

A11G C20U: the self-cleavage was determined as 0.797.

Regarding A4U C8U, the self-cleavage turned out to be 0.0539.

With C25G G47U, the self-cleavage worked out at 0.155.

On to A10G G45A, for which the self-cleavage turned out to be 1.13.

Regarding U6C A34U, the self-cleavage came to 0.333.

In the case of G7C A11G, the self-cleavage came to 0.106.

For C20A A22G, the self-cleavage turned out to be 0.0601.

Turning to C5U G38U, the self-cleavage came out at 0.503.

As to G39U G42U, the self-cleavage came to 0.149.

With G39U G42A, the self-cleavage is 0.104.

Turning to G7U A10G, the self-cleavage was 0.237.

For A4C G13U, the self-cleavage came out at 0.072.

Consider A4C G13C, for which the self-cleavage came out at 0.0474.

As to G16U G39C, the self-cleavage was found to be 0.173.

In the case of C26G C27A, the self-cleavage turned out to be 0.107.

For U12C C21A, the self-cleavage worked out at 0.124.

Take C9G G24A: the self-cleavage is 0.0902.

Take G13C C21U: the self-cleavage was found to be 0.0571.

Turning to G13C C21G, the self-cleavage was 0.0833.

With U18G C21G, the self-cleavage was found to be 0.0716.

C9U G16A: the self-cleavage came to 0.405.

On to A11U A32G, for which the self-cleavage was determined as 0.911.

Turning to C21A C26A, the self-cleavage is 0.069.

As for C46G G47C, the self-cleavage is 0.981.

A35U G48U: the self-cleavage stood at 1.17.

As to C5U G43C, the self-cleavage stood at 0.126.

As for C9G A11U, the self-cleavage came to 0.985.

As to C9G A11G, the self-cleavage came to 0.715.

For G16C C25U, the self-cleavage amounted to 0.188.

For the variant G7A U12A, the self-cleavage was 0.441.

For A11G G38C, the self-cleavage was 0.683.

For the variant C3A G45U, the self-cleavage was determined as 0.152.

With G29C G41C, the self-cleavage came to 0.0927.

In the case of G16U G24C, the self-cleavage was determined as 0.118.

Turning to C8U C21U, the self-cleavage is 0.0732.

On to U12C G29U, for which the self-cleavage came out at 0.746.

On to A11U G29C, for which the self-cleavage worked out at 1.02.

Consider U12A A23C, for which the self-cleavage amounted to 0.394.

For A35C G41C, the self-cleavage was 0.245.

As for G13C C27G, the self-cleavage was found to be 0.104.

For the variant U18C G36C, the self-cleavage amounted to 0.1.

On to C15A G36U, for which the self-cleavage was found to be 0.142.
